Here are results for nine molecules from patent US9766245B2, “Method of detecting cancer based on glycan biomarkers” (California Institute of Technology, priority 2013, dated 2017).

For data set [1], the target named is T1, BgtA (Helicobacter mustelae, UniProt D3UIY4). Kind of data set: BgtA activity assay monitored by LC-MS/MS. Format: biochemical. As to conditions: donor substrate, 12 h at 4° C. The procedure: BgtA Activity Assay and Monitoring of Chemoenzymatic Labeling Reactions by LC-MS/MS.
The Fucα(1-2)Gal substrate 1 (10 μM) was dissolved in 20 mM Tris.HCl pH 7.5, 50 mM NaCl, and 5 mM MnCl2. BgtA enzyme (Yi, W.; Shen, J.; Zhou, G.; Li, J.; Wang, P. G. J. Am. Chem. Soc. 2008, 130, 14420.) and UDP-ketoGal 3 (Khidekel, N.; Arndt, S.; Lamarre-Vincent, N.; Lippert, A.; Poulin-Kerstien, K. G.; Ramakrishnan, B.; Qasba, P. K.; Hsieh-Wilson, L. C. J. Am. Chem. Soc. 2003, 125, 16162.) or UDP-GalNAz 2 (Invitrogen) were added to final concentrations of 0.16 mg/mL and 50 μM, respectively, in a final volume of 100 μL. The reaction was incubated at 4° C. in the dark for 12-16 h, and the reaction progress was monitored by LC-MS/MS. To label with aminooxy-biotin 7, the reactions were diluted 5-fold with saturated urea, 2.7 M NaOAc pH 3.9 (50 mM final concentration and pH 4.8), and 7 (5 mM final concentration, Dojindo) and incubated for 20-24 h at rt. To label with ADIBO-biotin 6, 250 μM of 6 (Click Chemistry Tools) was added, and the reaction was incubated for 3 h at rt. […]

Data set [2] concerns the target T1, BgtA. Kind of data set: BgtA labeling of Galβ(1-4)GlcNAc-pNP in solution. The format is biochemical. As to conditions: 2 h, 25° C.
In data set [3] the target is T1, BgtA. Kind of data set: Kinetic analysis of BgtA with UDP-GalNAz and UDP-GalNAc. The format is biochemical. As to conditions: 100 μM acceptor 1. The procedure: (§1) Kinetic Analysis of BgtA with UDP-GalNAz and UDP-GalNAc.
(§2) Reactions were performed in duplicate with 100 μM acceptor substrate (1), 0.7 μg BgtA, and varying concentrations of UDP-GalNAz or UDP-GalNAc (50 to 800 μM) in 20 mM Tris-HCl pH 7.5, 50 mM NaCl, 10 mM MnCl2 at rt in a total volume of 20 μL. Product formation was monitored at 280 nm by reverse phase-HPLC (Agilent 1100), and time points were taken over the course of 5 min using a linear, 3-95% gradient of B (A: 0.1% aqueous trifluoroacetic acid B: 0.1% trifluoroacetic acid in MeCN) over 8 min with a flow rate of 1 mL/min. The kinetic parameters, apparent Km, Vmax, and kcat, were obtained by linear regression analysis of initial velocity vs. donor substrate concentration using KaleidaGraph (version 4.1.2).

Data set [4] deals with T1, BgtA. Kind of data set: Chemoenzymatic labeling of cell lysates, streptavidin capture and Western blotting. Format: biochemical. As to conditions: rat brain (olfactory bulb) lysates, BgtA + UDP-GalNAz, alkyne-biotin 11, streptavidin capture, immunoblot; in the presence but not absence of BgtA.
Data set [5] deals with CC(=O)N[C@H]1[C@@H](OP(=O)(O)OP(=O)(O)OC[C@H]2O[C@@H](n3ccc(=O)[nH]c3=O)[C@H](O)[C@@H]2O)O[C@H](CO)[C@H](O)[C@@H]1O. Kind of data set: Kinetic analysis of BgtA with UDP-GalNAz and UDP-GalNAc. The format is biochemical, Helicobacter mustelae. As to conditions: other: donor substrate, 100 μM acceptor 1, donor 50 to 800 μM, rt; pH 7.5. The protocol:
as §1, §2

For data set [6], the system named is [N-]=[N+]=NCC(=O)N[C@H]1[C@@H](OP(=O)(O)OP(=O)(O)OC[C@H]2O[C@@H](n3ccc(=O)[nH]c3=O)[C@H](O)[C@@H]2O)O[C@H](CO)[C@H](O)[C@@H]1O. The data set is described as above. Format: biochemical, Helicobacter mustelae. As to conditions: other: donor substrate, 100 μM acceptor 1, donor 50 to 800 μM, rt; pH 7.5. The procedure:
as §1, §2

In data set [7] the target is T1, BgtA. Kind of data set: Chemoenzymatic labeling on the glycan array. Format: biochemical. As to conditions: 0.5, 2 and 12 h, rt; ADIBO-biotin, Cy5-streptavidin; labeled if 12 h signal minus background >1000 relative fluorescence units. The procedure:
Chemoenzymatic Labeling on the Glycan Array.
Glycan Array version 5.0 was provided by the Consortium for Functional Glycomics (CFG). Pre-equilibrated arrays were treated with BgtA enzyme (0.16 mg/mL) and 500 μM UDP-GalNAz 2 in 20 mM Tris.HCl pH 7.4, 50 mM NaCl, 2 mM MnCl2 containing 1% bovine serum albumin (BSA) for various times (0, 0.5, 2, and 12 h) at rt, washed 4 times with wash buffer (20 mM Tris.HCl pH 7.4, 50 mM NaCl, 0.1% Triton X-100) and then 4 times with rinse buffer (20 mM Tris.HCl pH 7.4, 50 mM NaCl). The arrays were then incubated with ADIBO-biotin (5 μM) in 20 mM Tris.HCl pH 7.4, 50 mM NaCl for 2 h at rt. […] The arrays were then washed 4 times with wash buffer (containing 0.05% Tween-20 instead of 0.1% Triton X-100), 4 times with rinse buffer, 4 times with water, dried under a low stream of filtered air, and scanned using a PerkinElmer ScanArray Express fluorescence scanner and ImaGene data analysis software (BioDiscovery). Data were analyzed per the guidelines of the CFG. […] Because background fluorescence can be heterogeneous across the array, each array was divided into areas of 10 by 10 spots, or sub-arrays, and a background fluorescence value was calculated within each sub-array by the software. This value was then subtracted from the fluorescence signal for each glycan spot within the sub-array by the software. […]

On to “UDP-2-deoxy-2-(acetonyl)-β-D-galactopyranoside [UDP-ketoGal]”, for which, in data set [1], the “conversion of substrate 1 to the desired product with BgtA” value was “complete conversion”.

Regarding `CC(=O)N[C@H]1[C@H](Oc2ccc([N+](=O)[O-])cc2)O[C@H](CO)[C@@H](O[C@@H]2O[C@H](CO)[C@H](O)[C@H](O)[C@H]2O)[C@@H]1O` [Galβ(1-4)GlcNAc-pNP, p-nitrophenyl 2-acetamido-2-deoxy-4-O-(β-D-galactopyranosyl)-β-D-glucopyranoside], in data set [2], the “labeling by BgtA in solution” value is listed as “failed to label”.

For the molecule `[N-]=[N+]=NCC(=O)N[C@H]1[C@@H](OP(=O)(O)OP(=O)(O)OC[C@H]2O[C@@H](n3ccc(=O)[nH]c3=O)[C@H](O)[C@@H]2O)O[C@H](CO)[C@H](O)[C@@H]1O` [UDP-GalNAz, UDP-N-azidoacetylgalactosamine], the “kcat/Km fold lower than natural UDP-GalNAc substrate” value in data set [3] was “approximately 7 fold”. Besides, the “conversion of substrate 1 to the desired product with BgtA” value in data set [1] is “complete conversion”.

Turning to `CC(=O)N[C@H]1[C@@H](OP(=O)(O)OP(=O)(O)OC[C@H]2O[C@@H](n3ccc(=O)[nH]c3=O)[C@H](O)[C@@H]2O)O[C@H](CO)[C@H](O)[C@@H]1O` [UDP-GalNAc], the “Vmax fold higher than that of UDP-GalNAz” value in data set [3] was “approximately 5 fold”.

In the case of “synapsin I: known Fucα(1-2)Gal glycoprotein in rat brain lysate”, in data set [4], the “chemoenzymatic labeling and detection of glycoprotein” value (shortened to “chemoenzymatic labeling and detection”) is “chemoenzymatically labeled and detected”.

Consider BgtA (Helicobacter mustelae 12198), for which, in data set [5], the Km is 127 ± 36 µM and the Vmax amounted to 0.100 ± 0.010 nmol/min. Besides, in data set [6], the Km was determined as 168 ± 55 µM and the Vmax came to 0.020 ± 0.002 nmol/min.

For `CC(=O)N[C@@H]1[C@@H](O[C@@H]2O[C@H](CO)[C@H](O)[C@H](O)[C@H]2O[C@@H]2O[C@@H](C)[C@@H](O)[C@@H](O)[C@@H]2O)[C@H](O[C@@H]2O[C@@H](C)[C@@H](O)[C@@H](O)[C@@H]2O)[C@@H](CO)O[C@H]1O` [Glycan 61], in data set [7], the “labeling of glycan by BgtA and UDP-GalNAz on microarray” value is given as “weak labeling”.

B1: NCAM: known Fucα(1-2)Gal glycoprotein in rat brain lysate (protein, UniProt P13596 20-858, looked up)
Neural cell adhesion molecule …: LQVDIVPSQGEISVGESKFFLCQVAGDAKDKDISWFSPNGEKLSPNQQRISVVWNDDDSSTLTIYNANIDDAGIYKCVVTAEDGTQSEATVNVKIFQKLMFKNAPTPQEFKEGEDAVIVCDVVSSLPPTIIWKHKGRDVILKKDVRFIVLSNNYLQIRGIKKTDEGTYRCEGRILARGEINFKDIQVIVNVPPTVQARQSIVNATANLGQSVTLVCDADGFPEPTMSWTKDGEPIENEEEDDEKHIFSDDSSELTIRNVDKNDEAEYVCIAENKAGEQDASIHLKVFAKPKITYVENQTAMELEEQVTLTCEASGDPIPSITWRTSTRNISSEEKASWTRPEKQETLDGHMVVRSHARVSSLTLKSIQYTDAGEYICTASNTIGQDSQSMYLEVQYAPKLQGPVAVYTWEGNQVNITCEVFAYPSATISWFRDGQLLPSSNYSNIKIYNTPSASYLEVTPDSENDFGNYNCTAVNRIGQESLEFILVQADTPSSPSIDRVEPYSSTAQVQFDEPEATGGVPILKYKAEWKSLGEEAWHSKWYDAKEANMEGIVTIMGLKPETRYAVRLAALNGKGLGEISAATEFKTQPVREPSAPKLEGQMGEDGNSIKVNLIKQDDGGSPIRHYLVKYRALASEWKPEIRLPSGSDHVMLKSLDWNAEYEVYVVAENQQGKSKAAHFVFRTSAQPTAIPANGSPTAGLSTGAIVGILIVIFVLLLVVMDITCYFLNKCGLLMCIAVNLCGKAGPGAKGKDMEEGKAAFSKDESKEPIVEVRTEEERTPNHDGGKHTEPNETTPLTEPEKGPVETKSEPQESEAKPAPTEVKTVPNEATQTKENESKA
In the case of B1, the “chemoenzymatic labeling and detection” value in data set [4] was “chemoenzymatically labeled and detected”.

B2: p44 MAPK: a protein that has not been shown to be fucosylated (protein, UniProt P21708 2-380, looked up)
Mitogen-activated protein …: AAAAAAPGGGGGEPRGTAGVVPVVPGEVEVVKGQPFDVGPRYTQLQYIGEGAYGMVSSAYDHVRKTRVAIKKISPFEHQTYCQRTLREIQILLRFRHENVIGIRDILRAPTLEAMRDVYIVQDLMETDLYKLLKSQQLSNDHICYFLYQILRGLKYIHSANVLHRDLKPSNLLINTTCDLKICDFGLARIADPEHDHTGFLTEYVATRWYRAPEIMLNSKGYTKSIDIWSVGCILAEMLSNRPIFPGKHYLDQLNHILGILGSPSQEDLNCIINMKARNYLQSLPSKTKVAWAKLFPKSDSKALDLLDRMLTFNPNKRITVEEALAHPYLEQYYDPTDEPVAEEPFTFDMELDDLPKERLKELIFQETARFQPGAPEAP
Regarding B2, the “chemoenzymatic labeling and detection” value in data set [4] is given as “not detected”.

In general, Km refers to the concentration of substrate that gives half-maximal velocity. As a reminder, the Vmax is the rate approached at saturating substrate.
